Patent publication US20150344570A1 (published 2015)

T1: FcgRIIb (human, UniProt P31994 43-217)
T1 construct: extracellular domain; also called FcγRIIb; CD32B; not shown: His tag at the C terminus
T1 sequence (looked up): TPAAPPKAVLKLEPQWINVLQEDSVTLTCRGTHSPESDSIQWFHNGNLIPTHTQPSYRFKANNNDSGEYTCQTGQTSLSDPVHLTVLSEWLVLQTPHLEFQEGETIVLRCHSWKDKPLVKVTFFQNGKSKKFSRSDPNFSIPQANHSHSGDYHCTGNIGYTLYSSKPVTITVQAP

T2: FcgRIIaR (human, UniProt P12318 34-217)
T2 construct: extracellular domain; also called FcγRIIa R; FcγRIIa type R; not shown: His tag at the C terminus
T2 sequence (looked up): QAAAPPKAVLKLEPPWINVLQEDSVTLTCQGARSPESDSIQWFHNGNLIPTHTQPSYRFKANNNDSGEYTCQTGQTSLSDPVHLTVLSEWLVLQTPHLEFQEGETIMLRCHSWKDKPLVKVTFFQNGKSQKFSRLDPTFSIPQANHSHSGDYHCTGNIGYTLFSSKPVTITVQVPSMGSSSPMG

T3: FcgRIIaH (human, UniProt P12318 34-217)
T3 construct: extracellular domain; also called FcγRIIa H; FcγRIIa type H; not shown: His tag at the C terminus
T3 sequence (looked up): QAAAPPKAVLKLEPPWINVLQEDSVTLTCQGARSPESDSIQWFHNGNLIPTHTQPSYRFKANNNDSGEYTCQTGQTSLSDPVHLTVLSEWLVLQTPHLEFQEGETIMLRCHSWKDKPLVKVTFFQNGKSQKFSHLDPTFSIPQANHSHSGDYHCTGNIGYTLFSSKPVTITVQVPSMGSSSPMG


How the values were obtained:
Assay in all cases: SPR (Biacore); KD of H240-Kn033/H240-Hl033/L73-k0 divided by KD of the variant
FcgRIIb = molecular target: T1, FcgRIIb
Procedure: (§1) Binding of the produced variants to FcgRIa, FcgRIIaR, FcgRIIaH, FcgRIIb, FcgRIIIaF, and FcgRIIIaV was measured according to the method of Reference Example 8.
(§2) Analysis of interaction between objective antibody and the FcγR was carried out using Biacore T100 (GE Healthcare), Biacore T200, Biacore A100, and Biacore 4000. HBS-EP+ (GE Healthcare) was used as the running buffer, and the measurement temperature was set to 25° C. Chips produced by immobilizing the antigen peptide by the amine coupling method to a Series S sensor Chip CM5 (GE Healthcare), chips produced by allowing preliminarily biotinylated antigen peptides to interact with and immobilize onto a Series S Sensor Chip SA (certified) (GE Healthcare), chips produced by immobilizing Protein L (ACTIGEN, BioVision) to Series S Sencor Chip CM5 (GE Healthcare), or chips produced by immobilizing Protein A/G (Thermo Scientific) to Series S Sencor Chip CM5 (GE Healthcare) were used. Antibodies of interest were captured onto these chips, and allowed to interact to each FcγR diluted with running buffer. To regenerate and repeatedly use the chip, the antibodies captured onto the chip were washed off by reacting 10 mM glycine-HCl, pH 1.5.

FcgRIIIaV = molecular target: T4, FcgRIIIaV (human, UniProt P08637 17-208)
T4 construct: extracellular domain; also called FcγRIIIa V; not shown: His tag at the C terminus
T4 sequence (P08637 17-208 F176V limits assumed): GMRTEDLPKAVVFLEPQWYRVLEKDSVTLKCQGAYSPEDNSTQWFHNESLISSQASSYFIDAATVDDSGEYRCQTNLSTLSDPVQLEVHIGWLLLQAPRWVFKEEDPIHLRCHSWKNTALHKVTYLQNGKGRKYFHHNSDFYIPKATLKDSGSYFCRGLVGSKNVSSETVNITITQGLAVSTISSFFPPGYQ
Procedure: as §1, §2

FcgRIIaR = molecular target: T2, FcgRIIaR
Procedure: as §1, §2

FcgRIIIaF = molecular target: T5, FcgRIIIaF (human, UniProt P08637 17-208)
T5 construct: extracellular domain; also called FcγRIIIa F; not shown: His tag at the C terminus
T5 sequence (P08637 17-208): as the sequence (P08637 17-208 F176V limits assumed) above, with V160F counted along it
Procedure: as §1, §2

FcgRIIaH = molecular target: T3, FcgRIIaH
Procedure: as §1, §2

Binder | fold 2b (FcgRIIb) | fold 3aV (FcgRIIIaV) | fold 2aR (FcgRIIaR) | fold 3aF (FcgRIIIaF) | fold 2aH (FcgRIIaH)
H240-Kn033/H240-Hl033/L73-k0 (antibody, human IgG1, kappa, Anti-epiregulin antibody; native IgG1 with only knobs-into-holes alterations) heavy 1: not shown heavy 2: not shown light: DIQMTQSPSSLSASVGDRVTITCRASQDIHKYIAWYQQKPGQAPRLLIQYTSTLQPGVPSRFSGSGSGTDYTFTISSLQPEDIATYYCLQYEQLRTFGGGTKVEIKRTVAAPSVFIFPPSDEQLKSGTASVVCLLNNFYPREAKVQWKVDNALQSGNSQESVTEQDSKDSTYSLSSTLTLSKADYEKHKVYACEVTHQGLSSPVTKSFNRGEC | 1 fold | 1 fold | 1 fold | 1 fold | 1 fold
H240-Kn204/H240-Hl211/L73-k0 (antibody, human IgG1, kappa, L234Y/K290Y/Y296W in one H chain, S239D/A330M/K334V in the other) heavy 1: QDQLVQSGAEVKKPGASVKVSCKASGFNIKDTYIQWVRQAPGQGLEWMGRIDPLRKQTKYREKFEGRVTITADTSTNTAYMELSSLRSEDTAVYYCVRSGREFDYWGQGTLVTVSSASTKGPSVFPLAPSSKSTSGGTAALGCLVKDYFPEPVTVSWNSGALTSGVHTFPAVLQSSGLYSLSSVVTVPSSSLGTQTYICNVNHKPSNTKVDKKVEPKSCDKTHTCPPCPAPEYLGGPSVFLFPPKPKDTLMISRTPEVTCVVVDVSHEDPEVKFNWYVDGVEVHNAKTYPREEQWNSTYRVVSVLTVLHQDWLNGKEYKCKVSNKALPAPIEKTISKAKGQPREPQVCTLPPSRDELTKNQVSLWCLVKGFYPSDIAVEWESNGQPENNYKTTPPVLDSDGSFFLYSKLTVDKSRWQQGNVFSCSVMHEALHNHYTQKSLSLSP heavy 2: QDQLVQSGAEVKKPGASVKVSCKASGFNIKDTYIQWVRQAPGQGLEWMGRIDPLRKQTKYREKFEGRVTITADTSTNTAYMELSSLRSEDTAVYYCVRSGREFDYWGQGTLVTVSSASTKGPSVFPLAPSSKSTSGGTAALGCLVKDYFPEPVTVSWNSGALTSGVHTFPAVLQSSGLYSLSSVVTVPSSSLGTQTYICNVNHKPSNTKVDKKVEPKSCDKTHTCPPCPAPELLGGPDVFLFPPKPKDTLMISRTPEVTCVVVDVSHEDPEVKFNWYVDGVEVHNAKTKPREEQYNSTYRVVSVLTVLHQDWLNGKEYKCKVSNKALPMPIEVTISKAKGQPREPQVYTLPPSRCELTKNQVSLSCAVKGFYPSDIAVEWESNGQPENNYKTTPPVLDSDGSFFLVSKLTVDKSRWQQGNVFSCSVMHEALHNHYTQKSLSLSP light: DIQMTQSPSSLSASVGDRVTITCRASQDIHKYIAWYQQKPGQAPRLLIQYTSTLQPGVPSRFSGSGSGTDYTFTISSLQPEDIATYYCLQYEQLRTFGGGTKVEIKRTVAAPSVFIFPPSDEQLKSGTASVVCLLNNFYPREAKVQWKVDNALQSGNSQESVTEQDSKDSTYSLSSTLTLSKADYEKHKVYACEVTHQGLSSPVTKSFNRGEC | 2.5 fold | 6.5 fold | 1.2 fold | 20.7 fold | 0.7 fold
H240-Kn037/H240-Hl036/L73-k0 (antibody, human IgG1, kappa, it says that both H chains have G236A/S239D/I332E) heavy 1: QDQLVQSGAEVKKPGASVKVSCKASGFNIKDTYIQWVRQAPGQGLEWMGRIDPLRKQTKYREKFEGRVTITADTSTNTAYMELSSLRSEDTAVYYCVRSGREFDYWGQGTLVTVSSASTKGPSVFPLAPSSKSTSGGTAALGCLVKDYFPEPVTVSWNSGALTSGVHTFPAVLQSSGLYSLSSVVTVPSSSLGTQTYICNVNHKPSNTKVDKKVEPKSCDKTHTCPPCPAPELLAGPDVFLFPPKPKDTLMISRTPEVTCVVVDVSHEDPEVKFNWYVDGVEVHNAKTKPREEQYNSTYRVVSVLTVLHQDWLNGKEYKCKVSNKALPAPEEKTISKAKGQPREPQVCTLPPSRDELTKNQVSLWCLVKGFYPSDIAVEWESNGQPENNYKTTPPVLDSDGSFFLYSKLTVDKSRWQQGNVFSCSVMHEALHNHYTQKSLSLSP heavy 2: QDQLVQSGAEVKKPGASVKVSCKASGFNIKDTYIQWVRQAPGQGLEWMGRIDPLRKQTKYREKFEGRVTITADTSTNTAYMELSSLRSEDTAVYYCVRSGREFDYWGQGTLVTVSSASTKGPSVFPLAPSSKSTSGGTAALGCLVKDYFPEPVTVSWNSGALTSGVHTFPAVLQSSGLYSLSSVVTVPSSSLGTQTYICNVNHKPSNTKVDKKVEPKSCDKTHTCPPCPAPELLAGPDVFLFPPKPKDTLMISRTPEVTCVVVDVSHEDPEVKFNWYVDGVEVHNAKTKPREEQYNSTYRVVSVLTVLHQDWLNGKEYKCKVSNKALPAPEEKTISKAKGQPREPQVYTLPPSRCELTKNQVSLSCAVKGFYPSDIAVEWESNGQPENNYKTTPPVLDSDGSFFLVSKLTVDKSRWQQGNVFSCSVMHEALHNHYTQKSLSLSP light: DIQMTQSPSSLSASVGDRVTITCRASQDIHKYIAWYQQKPGQAPRLLIQYTSTLQPGVPSRFSGSGSGTDYTFTISSLQPEDIATYYCLQYEQLRTFGGGTKVEIKRTVAAPSVFIFPPSDEQLKSGTASVVCLLNNFYPREAKVQWKVDNALQSGNSQESVTEQDSKDSTYSLSSTLTLSKADYEKHKVYACEVTHQGLSSPVTKSFNRGEC | 8.7 fold | 7.1 fold | 25.5 fold | 13.8 fold | 11.3 fold
H240-Kn032/H240-Hl032/L73-k0 (antibody, human IgG1, kappa, S239D/A330L/I332E in both H chains) heavy 1: QDQLVQSGAEVKKPGASVKVSCKASGFNIKDTYIQWVRQAPGQGLEWMGRIDPLRKQTKYREKFEGRVTITADTSTNTAYMELSSLRSEDTAVYYCVRSGREFDYWGQGTLVTVSSASTKGPSVFPLAPSSKSTSGGTAALGCLVKDYFPEPVTVSWNSGALTSGVHTFPAVLQSSGLYSLSSVVTVPSSSLGTQTYICNVNHKPSNTKVDKKVEPKSCDKTHTCPPCPAPELLGGPDVFLFPPKPKDTLMISRTPEVTCVVVDVSHEDPEVKFNWYVDGVEVHNAKTKPREEQYNSTYRVVSVLTVLHQDWLNGKEYKCKVSNKALPLPEEKTISKAKGQPREPQVCTLPPSRDELTKNQVSLWCLVKGFYPSDIAVEWESNGQPENNYKTTPPVLDSDGSFFLYSKLTVDKSRWQQGNVFSCSVMHEALHNHYTQKSLSLSP heavy 2: QDQLVQSGAEVKKPGASVKVSCKASGFNIKDTYIQWVRQAPGQGLEWMGRIDPLRKQTKYREKFEGRVTITADTSTNTAYMELSSLRSEDTAVYYCVRSGREFDYWGQGTLVTVSSASTKGPSVFPLAPSSKSTSGGTAALGCLVKDYFPEPVTVSWNSGALTSGVHTFPAVLQSSGLYSLSSVVTVPSSSLGTQTYICNVNHKPSNTKVDKKVEPKSCDKTHTCPPCPAPELLGGPDVFLFPPKPKDTLMISRTPEVTCVVVDVSHEDPEVKFNWYVDGVEVHNAKTKPREEQYNSTYRVVSVLTVLHQDWLNGKEYKCKVSNKALPLPEEKTISKAKGQPREPQVYTLPPSRCELTKNQVSLSCAVKGFYPSDIAVEWESNGQPENNYKTTPPVLDSDGSFFLVSKLTVDKSRWQQGNVFSCSVMHEALHNHYTQKSLSLSP light: DIQMTQSPSSLSASVGDRVTITCRASQDIHKYIAWYQQKPGQAPRLLIQYTSTLQPGVPSRFSGSGSGTDYTFTISSLQPEDIATYYCLQYEQLRTFGGGTKVEIKRTVAAPSVFIFPPSDEQLKSGTASVVCLLNNFYPREAKVQWKVDNALQSGNSQESVTEQDSKDSTYSLSSTLTLSKADYEKHKVYACEVTHQGLSSPVTKSFNRGEC | 5.3 fold | 15.5 fold | 2.2 fold | 31.9 fold | 0.8 fold
